Our source for the protein production values is a protein production outcome set (Wang et al. 2014).

This data set is described as follows: label from the status in PepcDB records.
As to “MSANDSAVNESCHCGGCGSSGNGKFLNETPMLDQLESGPWPSFISGFKALAERTEKPMLRGVLDQLEYSYKTKMGYWKGGLVTVDGYGAGIITRYSMIKDKFPEAAEFHTMRIQPAPGLHYNTTMLRELCDIWEKYGSGIITLHGQTGDIMLQGIEQDKVQACFDELNQKGWDLGGAGAGMRTGVSCIGPGRCDNACYDNLKLHLEALKHFSPQVHRPEWNYKLKFKFSGCPNDCTNAIMRSDLAVIGTWRDSIQIDHDEVKAWIAEKGVDALVNNVINRCPTKAIRLQDGDIDISTRDCVRCMHCINAMSKALSPGKDKGIALLIGGKNTLKVGVNMGSLIVPFMKMETDEDREAFIELIEEIIDWWDDAGLDHERIGETIERVGLKQFLDGVGIEYDINQISRPRDNPYFKAKY”, the protein production entry is “failed”.

For “MSAPLPLCVIGAGCVGMRHVEVARRSPQIRLTAVVEPVETRRRALAESGLVAVATLEEVPRETRAAIVATPTPDHLATGLAALSRGWAVLVEKPTAGTMDDARVLLGAADRAGLPLYVGHHRRCHPFSRAAREALGGIGDLVGLQGLWSLRKHDSYYAEDWRRQAGAGPLMTNLSHEIDLLRFLVGDMVEVSALTSSARRGLVVPDTAALAFRFADGALGSFLISDAGASPWSFEAACAENPAIAVSGQDYIRITGTAGALEFPSLTRWGRSAPGEIEWSKPLARAAGAGFARVDPLLEQINRFAAVLEGAQDDVLCTGTDGNAALEMTLAAALSGKLGRPVRAHEVPGDYSGI”, the protein production result is on record as “failed”.

As to “MSAPQVWPWTNQTPPLKGDPTPEPKPQERPTRLKHPLDAPHSVYGVDKWGKGLIVVTEEGEIGLKNPLRPEADAVSLPGILHDLEQRGIRAPMILRISSYLENEICHINDSFADAIARSGYKGAYRGVFPIKVNQQAQVIDRIVEFGHRYSYGLEAGSKPELVIALAHKLATDALIVCNGVKDAEFVRLAILSRKLGFNTVIVLESPKEADTVIAVYEELGIEPLLGVRVKLTNQISGKWEESSGDRSSFGMNTDQLVRVVDKLRDAGLIHCLKLQHSHLGSQVPDVNDVRRAVGEACRYFTELSAEGVPLTHLDLGGGMGVDYTGEKRATENSINYTVEEYCANVVETVAYAMDEAGIDHPTIVTESGRAVVATSSLLVFNVLESTLYDAPTAPGTEPDDHHLVSDLAAVNGYLTPARLQECWNDATFYRNELRALFRRGYVDLRQMARAERIYLSLMARIKTMVAEVEAETDLDAQMEKIADIYHCNFSLFQSLPDVWAIDQLHPIVPLQMLNEAPDRRAVLSDITCDSDGKVDRFILADGVSPSLPVHSLPEDQDYYLGVFFVGAYQETLGDLHNLFGDTNVVTIDLRADGGFDLLHEQEGDTISEVLSYVEYDPADCVAAFRKLVDGAISNGCLKASERKLIIGAYRDSINGYTYYE”, the protein production entry is given as “failed”.

As to “MSAQEPWTAATAKGTALKNTTLLKALTIGILSILALIPLGIIMDLTSDREMLYHSVVEEIGRSWGEQQTLSGPALVIPYRYFVMEEEVSNDGKTRREVKRTYQDELVILPKKLALDLDLKHDFRTRGIYQSLVYSAALKGQADFSLNSYDIPNLIALDNKNARLVFGVSSNQAIDKVEKIEIKGDSALLSGSLMSGTGLTTGGLEKGFNQGIQVSEASDFSVNFAMTLRGSQSISALPLGEQTLINIQADWPHPSFKGLLPAEREINAKGFTASWNISHLTRNYPQEFVKSNQSTLTEVVANAILFEPVTHYGKIDRSVKYGLLFIVLTFIMLFIFELGQKTSLSIVQYILVGSAMALFYLLLLSLSEHLAFLQAYLIAACIPVLSVSTYVGSATASLKRGVIVGTMLVSLYAVLYSILQLEDYALLMGTGLLVVVLLILMFVTRHQSKNTAQ”, the protein production result was “not failed”.

With “MSARSLYQDTAVAALRDDLALALCAAAHHGLGEGVCNHFSVALPGQAGAFLLNPRGLMWSEVRAEDIVLVDAAGNKLAGRHEVEPTAMFIHAAIHQVAGKACVLHTHMPYATALTLTEARMLDTTLSQNAMRFHGRVAADRRYNGLALDAAEGERIARAMDGADIAFLGNHGVVVCGERIDYAFDDLYYLERACCAQVLAESSGRPLVPLDAALAASVAGQARSERLQSTLFFEALRRALGLEHHHHHH”, the protein production result is recorded as “failed”.

With “MSASAHIAQPDTRQQSRSDTPQAVAALAGRVLLSAIFLLSGVSKLAAPAMMIGYIGSVGLPFPQLALALAVIVEIGGGLALVAGWRTRTVAALLALFSVVTALAFHNALGDQNQFIHFFKNLAMAGGLLQVVAFGAGRFSLDARRR”, the protein production entry is reported as “failed”.

Consider “MSAVKSVSSFRLASLLRRENDPSAAMKLFRNPDPESTNPKRPFRYSLLCYDIIITKLGGSKMFDELDQVLLHLKTDTRIVPTEIIFCNVINFFGRGKLPSRALHMFDEMPQYRCQRTVKSLNSLLSALLKCGELEKMKERLSSIDEFGKPDACTYNILIHGCSQSGCFDDALKLFDEMVKKKVKPTGVTFGTLIHGLCKDSRVKEALKMKHDMLKVYGVRPTVHIYASLIKALCQIGELSFAFKLKDEAYEGKIKVDAAIYSTLISSLIKAGRSNEVSMILEEMSEKGCKPDTVTYNVLINGFCVENDSESANRVLDEMVEKGLKPDVISYNMILGVFFRIKKWEEATYLFEDMPRRGCSPDTLSYRIVFDGLCEGLQFEEAAVILDEMLFKGYKPRRDRLEGFLQKLCESGKLEILSKVISSLHRGIAGDADVWSVMIPTMCKEPVISDSIDLLLNTVKEDGPLSAMPQC”, for which the protein production result is reported as “failed”.

As for “MSAVVAQTLHVFGLRSHVANNIFYFDEQIIIFPSGNHCVKYNVDQKWQKFIPGSEKSQGMLALSISPNRRYLAISETVQEKPAITIYELSSIPCRKRKVLNNFDFQVQKFISMAFSPDSKYLLAQTSPPESNLVYWLWEKQKVMAIVRIDTQNNPVYQVSFSPQDNTQVCVTGNGMFKLLRFAEGTLKQTSFQRGEPQNYLAHTWVADDKIVVGTDTGKLFLFESGDQRWETSIMVKEPTNGSKSLDVIQESESLIEFPPVSSPLPSYEQMVAASSHSQMSMPQVFAIAAYSKGFACSAGPGRVLLFEKMEEKDFYRESREIRIPVDPQSNDPSQSDKQDVLCLCFSPSEETLVASTSKNQLYSITMSLTEISKGEPAHFEYLMYPLHSAPITGLATCIRKPLIATCSLDRSIRLWNYETNTLELFKEYQEEAYSISLHPSGHFIVVGFADKLRLMNLLIDDIRSFKEYSVRGCGECSFSNGGHLFAAVNGNVIHVYTTTSLENISSLKGHTGKIRSIVWNADDSKLISGGTDGAVYEWNLSTGKRETECVLKSCSYNCVTVSPDAKIIFAVGSDHTLKEIADSLILREISAFDVTYTAIVISHSGRMMFVGTSVGTIRAMKYPLPLQKEFNEYQAHAGPITKVSRTLSPGTQSHTCLLRALFIPSTSQCLFSLLLLSYLFIHHSLNHHLLTMNILFV”, the protein production entry was “failed”.

With “MSAWTMSDPYPATEAHAQRAAKSSPKSLLDRLLSLVRREPEDREGIKAILEAAHERELLDAESYAMIKGALAVSERTVADIMVPRSRMDLLDISQPLPQLLATIIETAHSRFPVYEDDRDNIIGILLAKDLLRYMLEPALDIRSLVRPAVFIPEVKRLNVLLREFRASRNHLAIVIDEHGGISGLVTMEDVLEQIVGDIEDEFDEDEEESIFPEGENQWRLTASTDISHFNATFATDLPDDEYDSVGGWLGGQLGRIPRRGDSADHDGLHIEVVRADARRALWLRVRRNAGAQPPASAAE”, the protein production result is listed as “not failed”.

With “MSCGYTGPINEQNKENIKRAIAMHAAARRTRMLQQLREGLQLYRLVDIMEKNKEVCRSHFVFEGGNDQVDSQYIVSHLDPKMSESGTLKHSKEMQILNNFQDFLMELEDGGPEDEEALCVSKVMQWLSGQAHVHLLLSERQAFKITVLFDHTCMERMPDHRICYPVDSAWTQTITFPTAHSTSLNQFKENMRIAVQQGAYFYRV”, the protein production result was “failed”.

With “MSDAAEIRMDAGALNAFLHRAFPEVDPEQMPQVLEVEAGRALLKLPYASRQLRPGGVISGPTMMSLADTAAYAMILARIGEVALSVTTSLNIHFLRGCKPGDLYAEATLLKLGRRIATVDVLMWTQGRERAAAKATVAYAIP”, the protein production entry is “failed”.

As to “MSDAHKSDLYLVLVTLLAAIGWMLSKEAVLMMPPLMFMAARFLIAGAFLALLALPSLLRLSRDQILRSLGVGFVFGIAMTCWIMGLYHTDSMGEGAFLTSLGVVIVPIIARTVFGEQQPLSTWLAIPIAVAGLALLSLENGFRPDPGQLYFVLAATIFALYFTLNTRAANQRIVVDKQGKTVEKKKVPALPLTAIALLTVGTVTLAESAISERWTHILTNPEPMLYVWVLASALIATAARFLLQTYAQSLSVNSHGVVILVLEPVWVAVFAVAWFGETMTLLQIAGCALIFAALLVNRWNALSRAIKALMKAKNPRQRG”, the protein production entry is given as “failed”.

As to “MSDAPTVVAYLGPAGTFTEEALYKFADAGVFGDGEIEQLPAKSPQEAVDAVRHGTAQFAVVAIENFVDGPVTPTFDALDQGSNVQIIAEEELDIAFSIMVRPGTSLADVKTLATHPVGYQQVKNWMATTIPDAMYLSASSNGAGAQMVAEGTADAAAAPSRAAELFGLERLVDDVADVRGARTRFVAVQAQAAVSEPTGHDRTSVIFSLPNVPGSLVRALNEFAIRGVDLTRIESRPTRKVFGTYRFHLDISGHIRDIPVAEALRALHLQAEELVFVGSWPSNRAEDSTPQTDQLAKLHKADEWVRAASEGRKLN”, the protein production result is recorded as “not failed”.

As to “MSDCLFDLHIGYVRFKNPIALAPMAGIVDSAFANQYASNAGLVILGAFNLDKASIAVASALVARGRKEFISDEPMEFMKKEIRAVTSGSAVAVNVRSTTLEPLIEAAKIVKEEGAILELNAHCRQPEMLEAGLGEALLHDLPKLSAWIRAIKETGVVLSVKVRANVVNDIELARLIDKAGADIIHVDAEMEGFGADLDAILNYRDATRLFLIGNNSVKDFEAAKEMFTRGADMVSAARGVLENSGLIQELVENVTSYQQSIGWYNAPKHVCSEGDFRGLAFCCLPVKPCPVHEKFQKLGYTAEEFARTKLDFAKGTMLEYGEDTCFGSLVWCCKITKPCWIRDGVLNTIGLSDTEYMKLKKQLAEYVLDHARIPVNESQ”, the protein production entry is on record as “failed”.

“MSDEVPEILLAHYLKTLKLPTFQREYQKLARLCATEGVDHVEYLLRLSEREMIERDRRKVERRIKAARFPVVKSLDSFDFAAIPKLNKMQVLELARCEWIERRENVIALGPSGTGKTHVALGLGLAACQKGLSVGFTTAAALVSEMMEARDERRLLRFQKQMAAYQLLIIDELGFVPLSKTGAELLFELISQRYERGATLITSNLPFDEWTETLGSERLTGALLDRITHHVNILEMNGDSYRLAQSRARKAGLEHHHHHH”: the protein production entry is “not failed”.

In the case of “MSDHNNKGRQQDVKALPRRVDERLNLSRHKEVKPSRLHDEVHRIVYELEARQLELEMQQENMLQSKEEMECLLKRYVEHYDIAPHSYMTISREGSILEANLTAAKNLGQDRALLKGDLLEKFIADKDRPVFKAFLERVFRGQTNAFCEVKLFNNQASQARGSAEADRYETVIEERMVRFDAALSNDGEECYIYITVSDRGSQNELEGQNTFFTDRLKDDIADMPDSDKVDFNYQLFDSVIHTRIRLAALSYLYTVKQACFVEIRDKIKASDGSLSVHMRMLESAGYISCDKEFLARKPQTVYRITPLGHDAFLKYSDIVFSLIAKKQEAS”, the protein production result was “failed”.

As to “MSDHVCQEGCRHHSHGEDSPEIQQEFQEGRRDFMRDFAVGGVLASAASLGISSSAFGQTMPKTGLTSGHATHYYIPASDKTVSWGFFSKSLKPVVELESGDFATIETLTHHSNDDASLMVKGDPGAESVFYWDSKRKNVDRRGMGPMDHKLGAGGGMGVHILTGPVAIKGAEPGDVLEVRIVDVALRPSANPEFKGKTFGSNVAANWGFHYNELIEEPKKREVVTIYELDATGERNWARAFYNYRWTPQKDPFGVVHPIVDYPGVPVDHSTISKNYNVLKNIRVPVRPHFGTMGLAPKEADLVNSVPPSHFGGNIDNWRIGKGATMYYPVSVAGGLFSVGDPHASQGDSEMCGTAIECSLTGTFQFILHKKADLPGTPLADLQYPLLETQDEWVLHGFSYANYLAELGPDAQNSIFSKSSLDLALKDAFRKMRHFLMQTQNLTEDEAVSLMSIGVDFGITQVVDGNWGVHAVVKKGIFPGRDV”, the protein production result is recorded as “not failed”.
